Assays:
[1] = molecular target: C-terminal domain of HIV-1 integrase (HIV-1) (UniProt P12497); assay: BLI; IN CTD construct (5 uM, acetate buffer pH 5) amine-coupled (EDC/NHS) to carboxyl biosensors, Imp7 in solution at 1-40 000 nM; steady-state analysis; 25 °C; GatorPrime
[2] = molecular target: IN CTD mutant (RRKAK to RAAAK) (HIV-1) (UniProt P12497); assay: as above

Xenopus laevis importin 7 (natural protein)
Kd [1]: 17.9 nM | stoichiometry N [1]: 1 | Kd [2]: 299 nM

Source: article PMC13399220
